Consider 13 proteins from patent US20250027068.

First the molecules themselves.
B1: PRT-375 (protein)
chain: MSQTEDSESLQRLRDIEDFQAEKKKQNVVYTKWLDGVDVKDHDFRKIVDGNEAYYATPLLNGRGFYDINKDFNRDNDKCAAAVAANMFHYWLDRNRDNVDRFLRQNPEKHGIIELPDGQLKLSDFLNTYESDDGYRDKSKLFDFISENFNGPVWTDKLLDNYINGYAYNYKYGRLIEDSTKNTSKINFFKEVFNEKILTNNHSIRNQNELSVLLSEALYTGKAIGLSYGPAGTRHSLGHIISVWGADLDADGNVVAIYVTDSDDKKLTIGDERVGLKRYKISTDDEGRLRLTAYEETHNTGGQIRGLWTLDTGKQAWADYFDKTEQTGTDQAEQ
B2: PRT-526 (protein)
chain: MANQEIRYSEETPKTITSVWTKGVTPPTDFIKNEDVLHAPYIANQGWYDITKTFNGKDDLLCGAATAGNMLHWWFDQNKEEIERYLKKHPEKQKINFNGEQMFDVKEAIDTKDSQTDSALFEYFKDKAFPNLSTKHLGVMPDHVLDMFINGYYLSLGKHGPTPVKRGTKDPRGGIFDAVFTRGDQSKLLTSRHDFKEKTLKEISDLIKQELTEGKALALSHTYANVRINHVINLWGADFDSEGNLEAIYVTDSDSNASIGMKKYYVGVNSAGKVAISAKEIEGDNIGAQVLGLFTLSTGQDIWEQTNLEHHHHHH
B3: PRT-586 (protein)
chain: MANQEIRYSEETPKTITSVWTKGVTPPTDFIYNEDVLHAPYIANQGWYDITKTFNGKDDLLCGAATAGNMLHWWFDQNKEQIERYLKKHPEKQKINFNGEQMFDVKEAIDTKDSQTDSKLFEYFKDKAFPYLSTKHLGVFPDHVIDMFINGYRLSLTNHGPTPVKRGTKDPRGGIFDAVFTRGDQSKLLTSRHDFKEKTLNEISDLIKQELTEGKALGLSHTYANVRINHVINLWGADFNAEGNLEAIYVTDSDSNASIGMKKYYVGVNSAGKVAISAKEIEGDNIGAQVLGLFTLSTGQDIWEQTNLEHHHHHH
B4: PRT-553 (protein)
chain: MANQEIRYSEETPKTITSIWTKGVTPPTDFIKNEDVLHAPYVANQGWYDITKTFNGKDDLLCGAATAGNMLHWWFDQNKEEIENYLKKHPEKQKINFNGEQMFDVKEAIDTKDSQTDSKLFEYFKDKAFPYLSTKHLGVFPDHVIDMFINGYRLSLTNHGPTPVKRGTKDPRGGIFDAVFTRGDQTKLLTERHDFKEKTLNEISDLIKQELTEGKALGLSHTYANVRINHVINLWGADFNSEGNLEAIYVTDSDSNASIGMKKYYVGVNAAGKVAISAKEIEDDNIGAQVLGLFTLSTGKDIWEQTNLEHHHHHH
B5: PRT-187 (protein)
chain: MANQEIRYSEVTPYHVTSVWTKGVTPPADFTYGEDVFHAPYVANQGWYDITKTFNGKDDLLCGAATAGNMLHWWFDQNKEQIEKYLKKHPEKQKIMFGDQELLDVRKVINTKGSQTNSELFNYFRDKAFPGLSARRLGVMPDLVLDMFINGYYLNVYKTQTTDVNRTYQEKDKRGGIFDAVFTRGDQSKLLTSRHDFKEKNLKEISDLIKQELTEGKALGLSHTYANVRINHVINLWGADFDSNGNLKAIYVTDSDSNASIGMKKYFVGVNSAGKVAISAKEIKEDNIGAQVLGLFTLSTGQDIWNQTN
B6: PRT-186 (protein)
chain: MANQEIRYSEVTPYHVTSVWTKGVTPPANFRKIVDGNIAYYHAPYVANQGWYDITKTFNGKDDLLCGAATAGNMLHWWFDQNKDQIKRYLEEHPEKQKINFNGEQMFDVKEAIDTKNHQLDSKLFEYFKEKAFPYLSTKHLGVFPDHVIDMFINGYRLSLTNHGPTPVKEGSKDPRGGIFDAVFTRGDQSKLLTSRHDFKEKNLKEISDLIKKELTEGKALGLSHTYANVRINHVINLWGADFDSNGNLKAIYVTDSDSNASIGMKKYFVGVNSAGKVAISAKEIKEDNIGAQVLGLFTLSTGQDSWNQTN
B7: PRT-189 (protein)
chain: MANQEIRYSEVTPYHVTSVWTKGVTPPDHDFANFTQGEDVFHAPYVANQGWYDITKTFNGKDDLLCGAATAGNMLHWWFDQNKDQIKRYLEEHPEKQKINFNGEQMFDVKEAIDTKNHQLDSKLFEYFKEKAFPYLSTKHLGVFPDHVIDMFINGYRLSLTNHGPTPVKEGSKDPRGGIFDAVFTRGDQSKLLTSRHDFKEKNLKEISDLIKKELTEGKALGLSHTYANVRINHVINLWGADFDSNGNLKAIYVTDSDSNASIGMKKYFVGVNSAGKVAISAKEIKEDNIGAQVLGLFTLSTGQDSWNQTN
B8: PRT-190 (protein)
chain: MANQEIRYSEVTPYHVTSVWTKGVTPPDHDFRKIVDGEDVFHAPYVANQGWYDITKTFNGKDDLLCGAATAGNMLHWWFDQNKDQIKRYLEEHPEKQKINFNGEQMFDVKEAIDTKNHQLDSKLFEYFKEKAFPYLSTKHLGVFPDHVIDMFINGYRLSLTNHGPTPVKEGSKDPRGGIFDAVFTRGDQSKLLTSRHDFKEKNLKEISDLIKKELTEGKALGLSHTYANVRINHVINLWGADFDSNGNLKAIYVTDSDSNASIGMKKYFVGVNSAGKVAISAKEIKEDNIGAQVLGLFTLSTGQDSWNQTN
B9: PRT-192 (protein)
chain: MANQEIRYSEVTPYHVTSVWTKGVTPPANFTQGEDVFHAPYVANQGWYDITKTFNGKDDLLCGAATAGNMLHWWFDQNKDQIKRYLEEHPEKQKINFNGEQMFDVKEAIDTKNHQLDSKLFEYFKEKAFPYLSTKHLGVFPDHVIDMFINGYRLSLTNHGPTPVKEGSKDPRGGIFDAVFTRGDQSKLLTSRHDFKEKNLKEISDLIKKELTEGKALGLSHTYANVRINHVINLWGADFDSNGNLKAIYVTDSDDKKLTISNASIGMKKYFVGVNSAGKVAISAKEIKEDNIGAQVLGLFTLSTGQDSWNQTN
B10: PRT-193 (protein)
chain: MANQEIRYSEVTPYHVTSVWTKGVTPPANFTQGEDVFHAPYVANQGWYDITKTFNGKDDLLCGAATAGNMLHWWFDQNKDQIKRYLEEHPEKQKINFNGEQMFDVKEAIDTKNHQLDSKLFEYFKEKAFPYLSTKHLGVFPDHVIDMFINGYRLSLTNHGPTPVKEGSKDPRGGIFDAVFTRGDQSKLLTSRHDFKEKNLKEISDLIKKELTEGKALGLSHTYANVRINHVINLWGADFDSNGNLKAIYVTDSDDKKLTIGDERIGMKKYFVGVNSAGKVAISAKEIKEDNIGAQVLGLFTLSTGQDSWNQTN
B11: PRT-188 (protein)
chain: MANQEIRYSEVTPYHVTSVWTKGVTPPANFRKIVDGNIAYYAAPYVANQGWYDITKTFNGKDDLLCGAATAGNMLHWWFDQNKDQIKRYLEEHPEKQKINFNGEQMFDVKELNTYESDHGYRDKSKLFEYFKEKAFPYLSTKHLGVFPDHVIDMFINGYRLSLTNHGPTPVKEGSKDPRGGIFDAVFTRGDQSKLLTSRHDFKEKNLKEISDLIKKELTEGKALGLSHTYANVRINHVINLWGADFDSNGNLKAIYVTDSDDKKLTIGDERIGMKKYFVGVNSAGKVAISAKEIKEDNIGAQVLGLFTLSTGQDSWNQTN
B12: PRT-191 (protein)
chain: MANQEIRYSEVTPYHVTSVWTKGVTPPANFTQGEDVFHAPYVANQGWYDITKTFNGKDDLLCGAATAGNMLHWWFDQNKDQIKRYLEEHPEKQKINFNGEQMFDVKEAIDTKNHQLDSKLFEYFKEKAFPYLSTKHLGVFPDHVIDMFINGYRLSLTNHGPTPVKEGSKDPRGGIFDAVFTRGDQSKLLTSRHDFKEKNLKEISDLIKKELTEGKALGLSHTYANVRHSINHVINLWGADFDSNGNLKAIYVTDSDSNASIGMKKYFVGVNSAGKVAISAKEIKEDNIGAQVLGLFTLSTGQDSWNQTN
B13: PRT-185 (protein)
chain: MANQEIRYSEVTPYHVTSVWTKGVTPPANFRQGEDVFAAPYVANQGWYDITKTFNGKDDLLCGAATAGNMLHWWFDQNKDQIKRYLEEHPEKQKINFNGEQMFDVKELNTYESDHGYRDKSKLFEYFKEKAFPYLSTKHLGVFPDHVIDMFINGYRLSLTNHGPTPVKEGSKDPRGGIFDAVFTRGDQSKLLTSRHDFKEKNLKEISDLIKKELTEGKALGLSHTYANVRINHVINLWGADFDSNGNLKAIYVTDSDDKKLTIGDERIGMKKYFVGVNSAGKVAISAKEIKEDNIGAQVLGLFTLSTGQDSWNQTN

The target of the first data set is pooled human IgG (human IgG1, 2, 3 and 4).
B1 returned an Enzyme Activity Endpoint Assay: Fab′2 of 170 ng/µL, an Enzyme Activity Endpoint Assay: Fc of 115 ng/µL, an Enzyme Activity Endpoint Assay: IgG of 0 ng/µL and an Enzyme Activity Endpoint Assay: scIgG of 180 ng/µL.

In turn, B2 displayed an Enzyme Activity Endpoint Assay: Fab′2 of 246 ng/µL, an Enzyme Activity Endpoint Assay: Fc of 379 ng/µL, an Enzyme Activity Endpoint Assay: IgG of 110 ng/µL and an Enzyme Activity Endpoint Assay: scIgG of 627 ng/µL.

With B3, the Enzyme Activity Endpoint Assay: Fab′2 worked out at 478 ng/µL, the Enzyme Activity Endpoint Assay: Fc was 322 ng/µL, the Enzyme Activity Endpoint Assay: IgG turned out to be 77 ng/µL and the Enzyme Activity Endpoint Assay: scIgG is 458 ng/µL.

B4: the Enzyme Activity Endpoint Assay: Fab′2 was 79 ng/µL, the Enzyme Activity Endpoint Assay: Fc was found to be 229 ng/µL, the Enzyme Activity Endpoint Assay: IgG worked out at 111 ng/µL and the Enzyme Activity Endpoint Assay: scIgG is 764 ng/µL.

The target of another data set is pooled human IgG (human IgG1,2,3 and 4).
As for B5, the Enzyme Activity Endpoint Assay: Fab'2 turned out to be 265 ng/µL, the Enzyme Activity Endpoint Assay: Fc is 307 ng/µL, the Enzyme Activity Endpoint Assay: IgG came out at 115 ng/µL and the Enzyme Activity Endpoint Assay: scIgG is 103 ng/µL.

Protein B6 showed an Enzyme Activity Endpoint Assay: Fab'2 of 646 ng/µL, an Enzyme Activity Endpoint Assay: Fc of 218 ng/µL, an Enzyme Activity Endpoint Assay: IgG of 9 ng/µL and an Enzyme Activity Endpoint Assay: scIgG of 0 ng/µL.

B7 showed an Enzyme Activity Endpoint Assay: Fab'2 of 469 ng/µL, an Enzyme Activity Endpoint Assay: Fc of 307 ng/µL, an Enzyme Activity Endpoint Assay: IgG of 0 ng/µL and an Enzyme Activity Endpoint Assay: scIgG of 101 ng/µL.

With B8, the Enzyme Activity Endpoint Assay: Fab'2 is 323 ng/µL, the Enzyme Activity Endpoint Assay: Fc was found to be 278 ng/µL, the Enzyme Activity Endpoint Assay: IgG came out at 76 ng/µL and the Enzyme Activity Endpoint Assay: scIgG turned out to be 145 ng/µL.

B9 had an Enzyme Activity Endpoint Assay: Fab'2 of 24 ng/µL, an Enzyme Activity Endpoint Assay: Fc of 204 ng/µL, an Enzyme Activity Endpoint Assay: IgG of 109 ng/µL and an Enzyme Activity Endpoint Assay: scIgG of 461 ng/µL.

In turn, B10 displayed an Enzyme Activity Endpoint Assay: Fab'2 of 39 ng/µL, an Enzyme Activity Endpoint Assay: Fc of 193 ng/µL, an Enzyme Activity Endpoint Assay: IgG of 181 ng/µL and an Enzyme Activity Endpoint Assay: scIgG of 355 ng/µL.

For B11, the Enzyme Activity Endpoint Assay: Fab'2 is 0 ng/µL, the Enzyme Activity Endpoint Assay: Fc is 40 ng/µL, the Enzyme Activity Endpoint Assay: IgG is 905 ng/µL and the Enzyme Activity Endpoint Assay: scIgG was found to be 25 ng/µL.

As for B12, the Enzyme Activity Endpoint Assay: Fab'2 was 36 ng/µL, the Enzyme Activity Endpoint Assay: Fc worked out at 183 ng/µL, the Enzyme Activity Endpoint Assay: IgG was determined as 161 ng/µL and the Enzyme Activity Endpoint Assay: scIgG was determined as 358 ng/µL.

In turn, B13 gave an Enzyme Activity Endpoint Assay: Fab'2 of 0 ng/µL, an Enzyme Activity Endpoint Assay: Fc of 45 ng/µL, an Enzyme Activity Endpoint Assay: IgG of 365 ng/µL and an Enzyme Activity Endpoint Assay: scIgG of 152 ng/µL.
